# Laboratory results reported in patent US20160017052A1 (Genentech, published 2016).
# Legend:
# human factor D [1] = molecular target: T1, human factor D (human, UniProt P00746 26-253); assay: cell-based or functional assay
# human factor D [2] = molecular target: T1, human factor D; assay: SPR, KD compared with AFD.v14
# Procedure: The flow rate was 30 μL/min, the running buffer was HBS-P+, the temperature of analysis was 25° C., real-time reference cell subtraction was employed, and dissociation following factor D injection was followed for 10 minutes. After subtraction of the sensorgram observed for injection of running buffer, data were analyzed according to a 1:1 model using BiaEval software v4.1 (GE Healthcare) to extract the kinetics and affinity constants.
# T1 sequence (P00746 26-253 limits assumed): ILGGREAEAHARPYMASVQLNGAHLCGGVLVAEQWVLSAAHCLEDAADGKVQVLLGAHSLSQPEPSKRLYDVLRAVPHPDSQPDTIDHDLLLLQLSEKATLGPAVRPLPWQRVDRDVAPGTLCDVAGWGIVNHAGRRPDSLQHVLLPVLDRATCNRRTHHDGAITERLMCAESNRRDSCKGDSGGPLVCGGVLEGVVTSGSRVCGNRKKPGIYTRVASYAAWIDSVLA
fold decrease in affinity for fD against SIESD.N103S (AFD.v14) (human factor D [2]),Binder,IC50 (nM) AP Hemolysis (human factor D [1])
,"AFD.v7 (TM.D92E; VL-D30E:D31S VH-D62E VL-D92E) (Fab, V domains shown) VH: EVQLVQSGPELKKPGASVKVSCKASGYTFTNYGMNWVRQAPGQGLEWMGWINTYTGETTYAEDFKGRFVFSLDTSVSTAYLQISSLKAEDTAVYYCEREGGVNNWGQGTLVTVSS VL: DIQVTQSPSSLSASVGDRVTITCITSTDIESDMNWYQQKPGKVPKLLISGGNTLRPGVPSRFSGSGSGTDFTLTISSLQPEDVATYYCLQSESLPYTFGQGTKVEIKR",3.8 nM
,"AFD.v14 (SIESD.N103S; VL-D28S:D30E:D31S VH-D62E VH-N103S) (Fab, V domains shown) VH: EVQLVQSGPELKKPGASVKVSCKASGYTFTNYGMNWVRQAPGQGLEWMGWINTYTGETTYAEDFKGRFVFSLDTSVSTAYLQISSLKAEDTAVYYCEREGGVSNWGQGTLVTVSS VL: DIQVTQSPSSLSASVGDRVTITCITSTSIESDMNWYQQKPGKVPKLLISGGNTLRPGVPSRFSGSGSGTDFTLTISSLQPEDVATYYCLQSDSLPYTFGQGTKVEIKR",4.1 nM
,"AFD.v8 (SIESD; VL-D28S:D30E:D31S VH-D62E) (Fab, V domains shown) VH: EVQLVQSGPELKKPGASVKVSCKASGYTFTNYGMNWVRQAPGQGLEWMGWINTYTGETTYAEDFKGRFVFSLDTSVSTAYLQISSLKAEDTAVYYCEREGGVNNWGQGTLVTVSS VL: DIQVTQSPSSLSASVGDRVTITCITSTSIESDMNWYQQKPGKVPKLLISGGNTLRPGVPSRFSGSGSGTDFTLTISSLQPEDVATYYCLQSDSLPYTFGQGTKVEIKR",4.2 nM
4 fold,"AFD.v15 (SIESD.N103S.D92E; VL-D28S:D30E:D31S:D92E VH-D62E:N103S) (Fab, V domains shown, Fab variant) VH: EVQLVQSGPELKKPGASVKVSCKASGYTFTNYGMNWVRQAPGQGLEWMGWINTYTGETTYAEDFKGRFVFSLDTSVSTAYLQISSLKAEDTAVYYCEREGGVSNWGQGTLVTVSS VL: DIQVTQSPSSLSASVGDRVTITCITSTSIESDMNWYQQKPGKVPKLLISGGNTLRPGVPSRFSGSGSGTDFTLTISSLQPEDVATYYCLQSESLPYTFGQGTKVEIKR",
